Key:
[1] = target: human kappa light chains (kappa LCs) of control pooled human serum (human); assay: affinity capture from 50 µl IgG-depleted serum, elution, LysC digestion, PRM mass spectrometry
[2] = target: human lambda light chains (lambda LCs) of control pooled human serum (human); assay: affinity capture from 100 µl IgG-depleted serum, elution, LysC digestion, PRM mass spectrometry
[3] = target: human kappa light chains (kappa LCs) of control pooled human serum (human); assay: affinity capture from IgG-depleted serum, elution, LysC digestion, PRM mass spectrometry

A fold increase in kappa FLC dimer signal compared to un-enriched serum [1] of 186 fold was found for “Capture Select affinity beads specific for kappa (KappaXP) LCs” in this work.
A fold increase in lambda FLC dimer signal compared to un-enriched serum [2] of 113 fold was found for “Capture Select affinity beads specific for lambda (LambdaXP) LCs” in this work.
A fold increase in kappa FLC dimer signal compared to un-enriched serum [3] of 155 fold was found for protein L agarose in this work.

— patent US20240418729A1
